# Experimental data as given in paper PMC13049129.
# Target: HnRNPA3-Myc (Homo sapiens) (UniProt P51991)
# Assay: EMSA
# Conditions: RNA-EMSA: 40 mM Tris pH 7.4, 30 mM KCl, 1 mM MgCl2, 0.1% IGEPAL CA-630, 1 mM DTT, 10 ug/ml BSA, 37 C, 30 min; 15% polyacrylamide gel stated to contain 8 M urea.
# Chain of HnRNPA3-Myc (Homo sapiens) (P51991 whole entry): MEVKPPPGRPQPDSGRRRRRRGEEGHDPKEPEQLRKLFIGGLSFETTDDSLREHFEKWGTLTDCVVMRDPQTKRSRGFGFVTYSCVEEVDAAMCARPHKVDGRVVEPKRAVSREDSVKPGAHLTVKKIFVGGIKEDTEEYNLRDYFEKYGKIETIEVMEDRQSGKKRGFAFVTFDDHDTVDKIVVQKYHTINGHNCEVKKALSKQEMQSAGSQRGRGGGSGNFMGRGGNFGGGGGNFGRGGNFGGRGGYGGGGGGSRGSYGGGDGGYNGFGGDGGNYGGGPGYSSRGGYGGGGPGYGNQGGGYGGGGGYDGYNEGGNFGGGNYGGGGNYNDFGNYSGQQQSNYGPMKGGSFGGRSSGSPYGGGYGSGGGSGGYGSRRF
sequence,measurement,value
GGGAUGUUAAAGAUGAGCGGGUGGCAGCGACAGAGCCAAAAUCAGAGCUGGAACCUGAGGAGAGAGUGUUCAAGAAGGAAGUGUAUCUUCAUACAUCACCACACCUGAAA [huORFchop RNA (105 nt)],binding,binds
